# The DeepSol protein solubility set
# Assay: soluble on expression in E. coli; label from the status in PepcDB or PDB records
row,Sequence,soluble on expression in E. coli
1,MDRFELLGPLPREGTTTVLEASAGTGKTFALAGLVTRYLAETAATLDEMLLITFNRAASRELRERVRGQIVEAVGALQGDAPPSGELVEHLLRGSDAERAQKRSRLRDALANFDAATIATTHEFCGSVLKSLGVAGDNAADVELKESLTDLVTEIVDDRYLANFGRQETDPELTYAEALALALAVVDDPCAQLRPPDPEPGSKAAVRLRFAAEVLEELERRKGRLRAQGFNDLLIRLATALEAADSPARDRMRERWRIVLVDEFQDTDPMQWRVLERAFSRHSALILIGDPKQAIYGFRGGDIHTYLKAAGTADARYTLGVNWRSDRALVESLQTVLRDATLGHADIVVRGTDAHHAGHRLASAPRPAPFRLRVVKRHTLGYDGTAHVPIEALRRHIPDDLAADVAALLASGATFAGRPVVAADIAVIVEHHKDARACRNALAEAGIPAIYTGDTDVFASQAAKDWLCLLEAFDAPQRSGLVRAAACTMFFGETAESLAAEGDALTDRVAGTLREWADHARHRGVAAVFQAAQLAGMGRRVLSQRGGERDLTDLAHIAQLLHEAAHRERLGLPGLRDWLRRQAKAGAGPPEHNRRLDSDAAAVQIMTVFVAKGLQFPIVYLPFAFNRNVRSDDILLYHDDGTRCLYIGGKDGGAQRRTVEGLNRVEAAHDNLRLTYVALTRAQSQVVAWWAPTFDEVNGGLSRLLRGRRPGQSQVPDRCTPRVTDEQAWAVFAQWEAAGGPSVEESVIGARSSLEKPVPVPGFEVRHFHRRIDTTWRRTSYSDLVRGSEAVTVTSEPAAGGRADEVEIAVVAAPGSGADLTSPLAALPSGASFGSLVHAVLETADPAAPDLAAELEAQVRRHAPWWTVDVDHAQLAPELARALLPMHDTPLGPAAAALTLRQIGVRDRLRELDFEMPLAGGDLRGRSPDVSLADVGELLASHLPGDDPLSPYADRLGSAGLGDQPLRGYLAGSIDVVLRLPGQRYLVVDYKTNHLGDTAADYGFERLTEAMLHSDYPLQALLYVVVLHRFLRWRQRDYAPARHLGGVLYLFVRGMCGAATPVTAGHPAGVFTWNPPTALVVALSDLLDRGRLQS,soluble
2,MDRNPSEPERIDWKNPITWISYLYTSFVYYLWLISSHLPHLPQPQRITDDKSTEQITRDAGIPRTEIVTRGDATQTVRQVAGLGDPAPKDSSLLPPSSSFVYCNNCLTPHSSQRTCSPAYVSTLSRQKSLTLLKKLKKPSSSASSTTTTTSSTVSFRAPSRASSTISDASTIRPSELIAIVPSGSHVLLRVPKLDWKTESIRIKRTRMSDWMDAEQRDVMRQFDEVIRSEEEDERTSRKRNGIFKDGSVRSIESLESRSRSKETPVFVPPPPPPTDAMPYLPRLAELNKGTPDQEFGFNLHAERGRGHFIGTVDAGGIGEKAGLEAGQRIVGVNGQLIYPTTGHKEVVALIKKDTMKTTLLVASEDVDKYHKDHNIAYSWDNVERVDTRPVINVETHHHHEEVSVPKSNGYDVPPLNPHSIQVNEEREISKMTTTTRTETITNSNSAYQYKESSTAYDAYATPPVDSNDLMDEVFGRVNLPGVTMSSHTEVLPPTDDISSVSSLSSHRESAVDVPVSHQYVPSYATESHQKHEQHSQTHHHHHQHQQPSPLSNGSSHGYAASSTSGYDDDDIYHLSAREARERLRMKNRKHHLHEMSLNEKYQLVSNM,not soluble
3,MDRRIAMSLQVLGAGLGRTGTLSLKFALEHLGFGPCYHATEVAANMRTALPLWNAAERGAADWSAIFAGYRSSTDHPGCYYWRQLIEVYPQAKVVLTVRDPDSWFESVTQTILMPGRKSTFVGPEGETFSTFLKQQMGGRSQDRAFMVDYFNRWNQAVIDAVPSDRLLVFSSRQGWAPLCGFLSVPVPHKPYPHLHARPRLRWFTRGLRLPDDVAARERHVREYLQYLREDLFGLEHHHHHH,soluble
4,MDSDPLGVFPNSPKYHPYYSQTTEFGGVIDLGLSLRTIQHEIYHSSGQIMTCGKGYCSNEGYRRKWGYVKVTMDGLVVGRKVCVLDHGSYSTLAHQLEDMFGMQSVSGLRLFQMESEFCLVYRDEEGLWRNAGDVPWNEFIESVERLRITRRNDAVLPF,not soluble
5,MDSEAVSSDSHVAAAIATRRRSNSVSDDYSVQRTNDDATQCKYFATQKGYWKDEFISRFANSSSNVSEARRFPEISMGYWARTAAIEKYVRDFLNEFDGNAQVVSLGCGFDTLFWRLVSSGAKLVKYVEVDFSSVTSKKIRHILKPIGPNSVDLKKSFESDAVVSHHADLHAGNYHLIGADLRQANELDQKLATCQLSHDIPTIFIAECVLVYMSADSSTALLKQIVSQFKQPAFVNYEQFRTSDAFTKVMEQNLGDRGIQLHGLEMCESAEKQEERFRNAGFKEVKVMDMNQIFNNFLDQKEVSRIREIEMLDEMELLQQLFAHYCVVSARI,not soluble
6,MDSGLKALEAVLAIARKGSFRAAALDLGVSTTALSHTVARLEAGLGVRLFHRTTRSVALTEAGREFVARIAPALTEIRAALETVRSQRATPSGMLRINASVQAGRAVAPLVLAFLRRYPEMRVDLVTEGRLLDIVAEGFDMGIRPADLVPRDMIALPLGLPVRHAVVASPDWLVRHPEPRSPADLDPDACLRVRLPNGALLRWPFQKDGVPLPFEASGRLTVDEAAIARAAVLDGAGIGYFIEADVAEDIAAGRMIRLLEDWTPNRPGFSLYYSGRRNPSAGFTAFLAMAREREAA,not soluble
7,MDSHVGEVDIFQQCKYIHEVELVNMKLQMRILETHIETKDRLLRNLEDIIDEQESRIANMEDFIQGRATSYTNRSNMLKGISVLSLDFGNLSEENLRLKNALSQMQKVARVNELLETDEDYESDMTSNEDRFALSRDSSCSVPRSVSPQPTGDVIKPYPQMVQSMREEGHWKKLQRCAEELKTEKDELKRLALDTKDAFNVCMAEMRMMLTSKTTDFFRVLIERYKAEMEKRKQLHNQLVELNGNIRVFYRIRPQLASETDNQKPVVVIDEMDNGVVHVSNTTGTRKTSAGADKVIPTDFSQDQIFNEVSPIITSCIDGYNVCIFAYGHTGSGKTYTMDGPVTMPGINQRAIMQLFETAKERTGDIKYDIKVAMMEIYNEKIRDLLNTSNTNLAIRQTEEGRSSIPGLEEVSVNSAEEVTETLARGRKNKAVAATEANIESSRSHVIVRVLVSATNLITKATTVGRLNLVDLAGSERVSQTNATGQLLKEAQAINKSLSELGNVVLALRQNQKHIPFRNCQLTRILEDSLNGDSKTLVIVHLSPDAKSLNESISSVNFAEKIGQVFTKSGTMKREPTRRSMTGISSGQRREIPASPRK,soluble
8,MDSLKCQVDNTVASHNVTIDKSSQDDNHIDNRRYYINIGNTKDSEEVARLQKLILTQNEAESKRTMELLALLNLKNNPEEQKKASAVGPAVDVAQNLRHLSASAGGTRRLRSCHGTYLRAYDKGLKVDMKTGAPGTWENWWVEDRKGKVVFKAIHSPGIFLSAQGNNQLTLDYHVNASEFWTPKKNDNGSWSFQSANGTWLSAHKDGRACLQPHRQAWEEFWLEWW,not soluble
9,MDTVNDSFSPGSSRPSPATLSREDCWSEEATFTLIQAWGNRYVDLSRGNLRQKHWQEVANAVNDRHYNTGRNVSAAKSQPYRTDVQCKNRIDTLKKKYKVEKARVSESNPGAYISPWPFFSALDDLLRESFPTSSNPDSTDNIPHQRLSLPMSINPVPVAPRSAIPRRPATSPAIIPHAGDDLLGFRGNLNAFAAAAAAAACPASEDDSEGSRSRSSGRSGSNKKRERKIEKKQGYKEVADAIERLGQIYERVEEKKRKEMVELEKQRMRFAKELECHRMQLFTEMQVRLHKLRRTSGSKGPTSSASAGET,soluble
10,MDVQDIIGIALNLATAGSLAAKVLPGCGGKKKGKSVEGESTSSSKGNGAKTPEGKEGSEARTPSAAGSAAPTAPAEGAAPAAGAPAAVAPKPPMAATHDPNYQTLAGLDNNVFGKKDGAAPAAGGGGPAAPADQNAKAATHDPNYQTLAGLNNNVFDKKDGVGAPAAAPVAAGGDKKPIQPNDKNKKAATMDPNYQTLAAVGGDVFGADKKAGGGGGDKKPIQPNNKGQKAATMDPNYQTLAAVGGDVFGADKKKK,soluble
11,MDVQLPYNVKIEAFEGPLDLLLHLINRYEIDIYDIPVAQITEQYMAYIHAMQELELDIASEYLVMAATLLAIKSKMLLPPSNEEAVDGDIEWGDDGDPREELTQRLLEYKKFKEAARELKRREEERALLFTKPPSDLSAYADEKKAAPLDVNVYDMLGALSKLLRRKKLQKPMRAKISRQDISVEQRMAEILHELKQANGRKNFYELFPSYDRSYIVVTFLAILELMKQDEIIVEQERNFSDLFLAVKPAG,not soluble
12,MDVTRQIELAHRYMKDFHKSDYSGHDVAHVERVTSLAQTISKCEQQGEYLIITLSALLHDVIDDKLTNKANALDRLKTFLKNIRVSSDQQQKIIYIIQHLSYRNGQNNHVDLPIEGQIVRDADRLDAIGAIGIARAFQFSGHFNEPMWTESPHSDIPNIETITNLEPSAIRHFYDKLLKLKDLMHTETGRKLARERHAFMEQFLNQFYKEWHILEHHHHHH,soluble
13,MDWRWWKIAYEELTEKQQRFVDKYITTFNATESAKQAGYSEKSAYSQGQRLLKNVEIQKAMKERFLEAKDTKGDRIQDVAETLEQDTSIARGEIQISEFKETDMLTGQVVIHTKREYTPSHEEQGRARDRIYKVNGAYSEKRELEHSGTVVFANEDNIPD,not soluble
14,MDYRVLLYYKYVTIDDPETFAAEHLKFCKEHHLKGRILVSTEGINGTLSGTKEDTDKYIEHMHADNRFADLTFKIDEAESHAFKKMHVRPRREIVALDLEEDINPREITGKYYSPKEFKAALEDENTVILDARNDYEYDLGHFRGAIRPDITRFRDLPEWVRNNKEQLDGKNIVTYCTGGIRCEKFSGWLVKEGFENVGQLHGGIATYGKDPETKGQYWDGKMYVFDERISVDVNQIDKTVIGKEHFDGTPCERYINCANPECNKQILVSEENEEKYLGACSYDCAKHERNRYVARHHISNEEWQRRLNNFKDVPEHTHALEHHHHHH,soluble
15,MDYSEIMVRHGELSTKGKNRMRFINKLKNNIQDVLAPFPAITVRSDRDRTHVSLNGTDYQPIVEALKLVFGVQALSPVYKLEKSVPLLVTAVQDIMTSLYRDGLTFKIATKRSDHAFELDSRELNSLLGGAVFEVLPNIQAQMKHPDVTLKVEIRDEAAYISYEEIKGAGGLPVGTSGKGMLMLSGGIDSPVAGYLALKRGLDIEVVHFASPPYTSPGALAKAQDLTRRLTRFGGNIQFIEVPFTEIQEEIKNKAPEAYLMTLTRRFMMRITDAIREQRKGLVIVNGESLGQVASQTLESMQAINAVTSTPIIRPVVTMDKLEIIEMAQAIDTFDISIQPFEDCCTIFAPDRPKTNPKLGNAEKYEECFDIDGLVQRAVSGIVVTEITPEIVNDEVENLIDALL,not soluble
16,MDYTEESAQIPEMAEKLGIPTSRKETKTLELPVSIDFRNWCSPIEDQMDLGSCTAHAGVGVVEYFERRAFGKHIDGSRFFVYKTTRNLMGVKGDTGAWLRNTMGALALCGVPPEKYFPYTSRKTPGPDGEPTFDDEPSSFVYSLADNFEALNYFCHDPQGMNLPPEDVILSVKKYLAAGIPSMFGFYGFPSFKDTDVKGGIPFPGPDERSIWGHAVVAVGYDDNMKIRNTLSNKETTGAFLIRNSWGTAWGDKGYGWLPYEYALNKFALDFWSLISMKWVETGNFGLELESSRSRARETLSRDMPLPHALEHHHHHH,not soluble
17,MDYVDYSNPDNPVITDEGERLAKIHSEADLLVAQCLKRGIWDNLDPAELAGVVSMCTFENRRETGGEAQAVTEAMADSMNSVERIWGELVEDERRHRLPITRQPEAGFATAIHQWASGAPLGYCMAAAAENGAELTPGDFVRWCRQVIDLLEQVAKTAYFDETTRNARQAIDAIRRGVVAIGSLEHHHHHH,soluble
18,MEAKAIARYVRISPRKVRLVVDLIRGKSLEEARNILRYTNKRGAYFVAKVLESAAANAVNNHDMLEDRLYVKAAYVDEGPALKRVLPRARGRADIIKKRTSHITVILGEKHGK,soluble
